Measurements as given in patent publication US20220090089A1 (BROAD INSTITUTE, published 2022).

Biological target: T1, CD4 on primary human peripheral blood mononuclear cells (PBMCs) (human, UniProt P01730 26-458)
T1 construct: whole, on cells
Assay: flow cytometry of phage-stained human PBMCs
Protocol: Harvested cell lines or thawed PBMCs (see PHAGE-ATAC workflow for harvest and thawing protocol) were resuspended in FC buffer (see above) and incubated with respective phage nanobodies for 20 min on a rotator at 4° C. Cells were centrifuged and washed with cold FC buffer twice to remove unbound phages (centrifugation steps all were 350 g, 4 min, 4° C.). […] Cells were incubated for 10 min on ice, washed twice in FC buffer and resuspended in Sytox Blue (Thermo Scientific) containing FC buffer for live/dead discrimination according to manufacturer's instructions. […] Stained cells were analyzed using a CytoFLEX LX Flow Cytometer (Beckman Coulter) at the Broad Institute Flow Cytometry Facility. Flow cytometry data were analyzed using FlowJo software v.10.6.1.

B1: PAC-tagged anti-CD4 nanobody-displaying M13 phage (phagemid pDXinit-CD4Nb-PAC) (VHH)
VHH: EVQLVESGGGSVQPGGSLTLSCGTSGRTFNVMGWFRQAPGKEREFVAAVRWSSTGIYYTQYADSVKSRFTISRDNAKNTVYLEMNSLKPEDTAVYYCAADTYNSNPARWDGYDFWGQGTQVTVSS
notes: also called anti-CD4 pNb; anti-CD4 phage nanobody; not shown: M13 phage coat protein p3, from phagemid pDXinit; 12-amino acid PAC-tag
B1: binds.
